Laboratory results published in paper PMC4255253.

Target: human inducible heat shock protein 70 (hHsp70), full-length, non-tagged (human)
Test: BLI; biotinylated hHsp70 or DnaK immobilised on streptavidin biosensor tips, analyte in PBS (hHsp70 200-500 nM; hHsp40 20-50 nM; DnaK 200-500 nM), association 600 s, dissociation 600 s, 1:1 model

Sequence of human inducible heat shock protein 70 (hHsp70), full-length, non-tagged (human) (P0DMV8 whole entry E110D): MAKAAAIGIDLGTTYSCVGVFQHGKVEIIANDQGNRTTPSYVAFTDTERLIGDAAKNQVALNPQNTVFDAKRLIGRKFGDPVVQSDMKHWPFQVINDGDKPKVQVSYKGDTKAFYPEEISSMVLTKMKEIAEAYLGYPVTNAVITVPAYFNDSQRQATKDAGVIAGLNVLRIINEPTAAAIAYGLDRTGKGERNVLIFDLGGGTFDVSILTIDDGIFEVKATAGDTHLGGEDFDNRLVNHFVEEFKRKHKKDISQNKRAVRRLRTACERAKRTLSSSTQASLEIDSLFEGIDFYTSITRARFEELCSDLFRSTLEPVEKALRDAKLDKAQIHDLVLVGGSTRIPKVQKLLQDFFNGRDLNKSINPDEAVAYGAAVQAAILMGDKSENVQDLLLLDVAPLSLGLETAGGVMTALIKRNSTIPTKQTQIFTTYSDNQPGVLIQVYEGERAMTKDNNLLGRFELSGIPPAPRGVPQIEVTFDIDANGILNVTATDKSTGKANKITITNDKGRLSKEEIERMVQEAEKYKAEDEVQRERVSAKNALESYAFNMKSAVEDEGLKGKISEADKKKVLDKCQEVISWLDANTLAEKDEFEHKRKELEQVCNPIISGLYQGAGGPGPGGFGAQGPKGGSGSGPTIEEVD

## human heat shock protein 40 (hHsp40) (from UniProt P25685 1-340) (natural protein)
  Kd: 0.52 nM
